Source: publication PMC5740117, “Functional characterization and discovery of modulators of SbMATE, the agronomically important aluminium tolerance transporter from Sorghum bicolor” (Scientific Reports, 2017)

B1: Nb 80 (VHH)
VHH: QVQLVESGGGSVQAGGSLRLSCTYSVYTYSSDSMAWFRQAPGKEREGVAGIYIGSGSTLYADSAKGRLTISQDKAKNTVYLQMNSLKPEDTALYYCAAGGNWYDGVLNVERAFAYWGQGTQVTVSS
notes: Selected by mRNA/cDNA display from a naive camelid single-domain library (Creative Biolabs); also called nanobody 80; source: E. coli, purified (Ni-NTA, SEC)
B2: Nb 94 (VHH)
VHH: EVQLVESGGGLVQPGGSLRLSCAASGFTFSTYSMSWVRLAPGKALEWVSVINSGGDATYYADSVKGRFTISRDNAKNMLYLQMNSLKPVDTAMYYCVTGLYMSTGPVVAVPFGYWGQGTQVTVSS
notes: Selected by mRNA/cDNA display from a naive camelid single-domain library (Creative Biolabs); also called nanobody 94; source: E. coli BL21 (DE3) Star, purified (Ni-NTA, SEC)
B3: Nb 83 (VHH)
VHH: EVQLVESGGGSVQAGGSLRLSCAVSGYTYCSYDMSWYRQAPGKEREFVSGIDSDGSTSYADSVKGRFTISQDNAKNTLYLQMNSLKPEDTAMYYCAVDSVWRLCSLDPADFGYWGQGTQVTVSS
notes: Selected by mRNA/cDNA display from a naive camelid single-domain library (Creative Biolabs); also called nanobody 83; source: E. coli BL21 (DE3) Star, purified (Ni-NTA, SEC)
B4: Nb 86 (VHH)
VHH: HVQLVESGGGSVQAGGSLRLTCAASGFTFSNYYMSWVRQAPGKGLEWVSSIYSVGSNGYYADSVKGRSTISRDNAKNTLYLQMNSLKPEDTAVYYCAAEPGGSWWDAYSYWGQGTQVTVSS
notes: Selected by mRNA/cDNA display from a naive camelid single-domain library (Creative Biolabs); also called nanobody 86; source: E. coli Shuffle T7, purified (Ni-NTA, SEC)
B5: Nb 81 (VHH)
VHH: HVQLVESGGGSVQAGGSLRLSCAASGYSYCSYDMSWYRQAPGKEREFVATIDSYGDTSYADSVKGRFTISQDNAKNTLYLQMNSLKPEDTAMYYCATTPYGGWRYFGYWGQGTQVTVSS
notes: Selected by mRNA/cDNA display from a naive camelid single-domain library (Creative Biolabs); also called nanobody 81; source: E. coli, purified (Ni-NTA, SEC)
B6: Nb 93 (VHH)
VHH: HVQLVESGGGLVQAGGFLRLSCTASGFTFDNLALAWFRQAPGKEREGVSCISWSGTRTYYADSVQGRFAISRDNAKNTLYLQMASLKPEDTAMYYCAAESSWVKTCPGDTTDWGSTYWGQGTQVTVSS
notes: Selected by mRNA/cDNA display from a naive camelid single-domain library (Creative Biolabs); also called nanobody 93; source: E. coli, purified (Ni-NTA, SEC)

Tests used:
SbMATE [1] = biological target: T1, SbMATE (Sorghum bicolor, UniProt A7XZS5); assay: surface plasmon resonance, immobilized detergent-purified protein; type: binding; set-up: full-length; N-terminal FLAG and C-terminal His10 (or 3C-cleavable C-terminal His8) in Pichia pastoris KM71H, bDDM-purified for SPR; Xenopus oocytes from cRNA for citrate efflux; conditions: 50 mM HEPES pH 8.0, 150 mM NaCl, 0.03% bDDM
T1 sequence (A7XZS5 1-600): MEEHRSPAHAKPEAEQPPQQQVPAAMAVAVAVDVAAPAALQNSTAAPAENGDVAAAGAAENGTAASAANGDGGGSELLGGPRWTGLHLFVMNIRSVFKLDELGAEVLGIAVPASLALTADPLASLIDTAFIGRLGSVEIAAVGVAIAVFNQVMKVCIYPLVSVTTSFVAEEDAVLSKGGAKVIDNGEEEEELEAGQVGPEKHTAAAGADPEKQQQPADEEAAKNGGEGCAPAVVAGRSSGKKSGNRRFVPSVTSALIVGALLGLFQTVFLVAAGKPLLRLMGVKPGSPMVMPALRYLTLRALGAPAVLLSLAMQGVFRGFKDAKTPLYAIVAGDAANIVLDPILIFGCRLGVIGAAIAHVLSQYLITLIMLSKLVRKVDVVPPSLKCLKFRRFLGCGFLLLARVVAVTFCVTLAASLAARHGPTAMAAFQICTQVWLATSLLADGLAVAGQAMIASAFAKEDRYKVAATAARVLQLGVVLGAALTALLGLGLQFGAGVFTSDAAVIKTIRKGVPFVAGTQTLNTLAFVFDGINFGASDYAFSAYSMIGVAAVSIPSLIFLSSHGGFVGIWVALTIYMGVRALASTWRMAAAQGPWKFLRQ

SbMATE [2] = biological target: T1, SbMATE; assay: ethidium uptake into Pichia pastoris cells, flow cytometry of DNA-bound ethidium; type: cell-based; set-up: full-length; N-terminal FLAG and C-terminal His10 (or 3C-cleavable C-terminal His8) in Pichia pastoris KM71H; conditions: pH 8.5, 25 mM Tris-Cl, 137 mM NaCl, 2.7 mM KCl, outward proton gradient, 20 min, room temperature; read-out: half-maximal transport rate
[3] = biological target: T2, SbMATE (Sorghum bicolor MATE transporter), detergent-purified (Sorghum bicolor, bDDM detergent-solubilised from Pichia pastoris; N-terminal FLAG and C-terminal His10 tags left out; covalently immobilised by EDC-NHS chemistry for SPR); assay: SPR; BiOptix 404Pi, CMD sensorchip; detergent-purified SbMATE covalently immobilised (EDC-NHS, 5,000 RU); purified Nbs injected at various concentrations; running buffer 50 mM HEPES pH 8.0, 150 mM NaCl, 0.03% bDDM; double-referenced against a blank surface and buffer injections; regeneration 50 mM glycine pH 2.1; conditions: both partners purified
T2 chain: T1 sequence (A7XZS5 1-600)

[4] = biological target: T2, SbMATE (Sorghum bicolor MATE …); assay: SPR; as the other SPR (SbMATE covalently immobilised on CMD chip; 50 mM HEPES pH 8.0, 150 mM NaCl, 0.03% bDDM; Nbs injected at various concentrations) but a BSA-immobilised surface was the reference channel instead of a blank surface; n = 3; conditions: both partners purified

Molecule	Kd [3] [µM]	other results
ethidium bromide		Kd (SbMATE [1]): 47.1 ± 15.6 µM; Km (SbMATE [2]): 130 ± 17.8 µM
B1	12.2	
B2		Kd [4]: 99.5 nM
B3	3.3	
B4		Kd [4]: 174 nM
B5	23.9	
B6	26.1	
